Results: PMC4312765 (Protein & Cell, 2014)

Molecular target: the molecule itself
Test: static light scattering + AUC; Dpy30FL and Dpy30C in solution

B1: Dpy30 C-terminal domain (domain or fragment)
chain: not shown
- stoichiometry N: 2
